This is an account of results in patent US20200123264A1 (Regeneron, published 2020).

Holding throughout (assay): SPR, mAb captured, 37 C
In assay [1] the target is T1, recombinant rat LEPR extracellular domain expressed with a C-terminal myc-myc-hexahistidine tag (rat, UniProt Q62959 22-839).
T1 construct: Monomeric construct; also called rLEPR.MMH; rLEPR-MMH
The method, then:
(§1) Equilibrium dissociation constants (KD values) for antigen binding to purified anti-LEPR monoclonal antibodies of the invention were determined using a real-time surface plasmon resonance biosensor using a Biacore 4000 instrument. All binding studies were performed in running buffer containing 10 mM HEPES, 150 mM NaCl, 3 mM EDTA, and 0.05% v/v Surfactant Tween-20, pH 7.4 (HBS-ET running buffer) at 25° C. and 37° C. The Biacore sensor surface was first derivatized by amine coupling with a monoclonal mouse anti-human Fc antibody (GE, # BR-1008-39) to the capture anti-LEPR monoclonal antibodies. The LEPR reagents tested for binding to the anti-LEPR monoclonal antibodies included recombinant human LEPR extracellular domain expressed with a C-terminal myc-myc-hexahistidine tag (hLEPR.MMH; SEQ ID NO:90), recombinant cynomolgus monkey LEPR extracellular domain expressed with a C-terminal myc-myc-hexahistidine tag (mfLEPR.MMH; SEQ ID NO:93), recombinant mouse LEPR extracellular domain expressed with a C-terminal myc-myc-hexahistidine tag (mLEPR.MMH; SEQ ID NO:94), recombinant rat LEPR extracellular domain expressed with a C-terminal myc-myc-hexahistidine tag (rLEPR.MMH; SEQ ID NO:95), and recombinant human LEPR extracellular domain expressed with a C-terminal mouse IgG2a Fc tag (hLEPR.mFc; SEQ ID NO:91). LEPR constructs that include MMH tags are monomeric LEPR constructs, and LEPR constructs including an mFc tag are dimeric LEPR constructs. […] The dissociation of monoclonal antibody bound LEPR reagent was monitored for 10 minutes in HBS-ET running buffer. Kinetic association (10 and dissociation (10 rate constants were determined by fitting the real-time binding sensorgrams to a 1:1 binding model with mass transport limitation using Scrubber 2.0c curve-fitting software. Binding dissociation equilibrium constants (KD) and dissociative half-lives (t½) were calculated from the kinetic rate constants as: […]

Assay [2] has as its target T2, recombinant mouse LEPR extracellular domain expressed with a C-terminal myc-myc-hexahistidine tag (mouse, UniProt P48356 22-839).
T2 construct: Monomeric construct; also called mLEPR.MMH; mLEPR-MMH
The method, then:
as §1

In assay [3] the target is T3, recombinant human LEPR extracellular domain expressed with a C-terminal myc-myc-hexahistidine tag (human, UniProt P48357 22-839).
T3 construct: Monomeric construct; also called hLEPR.MMH; hLEPR-MMH
The method, then:
as §1

The target of assay [4] is T4, recombinant cynomolgus monkey LEPR extracellular domain expressed with a C-terminal myc-myc-hexahistidine tag (cynomolgus monkey, UniProt Q9MYL0 22-837 (rhesus entry)).
T4 construct: Monomeric construct; also called mfLEPR.MMH; mfLEPR-MMH
The protocol:
as §1

Assay [5] deals with T5, recombinant human LEPR extracellular domain expressed with a C-terminal mouse IgG2a Fc tag (human).
T5 construct: Dimeric construct; also called hLEPR.mFc; hLEPR-mFc
T5 chain: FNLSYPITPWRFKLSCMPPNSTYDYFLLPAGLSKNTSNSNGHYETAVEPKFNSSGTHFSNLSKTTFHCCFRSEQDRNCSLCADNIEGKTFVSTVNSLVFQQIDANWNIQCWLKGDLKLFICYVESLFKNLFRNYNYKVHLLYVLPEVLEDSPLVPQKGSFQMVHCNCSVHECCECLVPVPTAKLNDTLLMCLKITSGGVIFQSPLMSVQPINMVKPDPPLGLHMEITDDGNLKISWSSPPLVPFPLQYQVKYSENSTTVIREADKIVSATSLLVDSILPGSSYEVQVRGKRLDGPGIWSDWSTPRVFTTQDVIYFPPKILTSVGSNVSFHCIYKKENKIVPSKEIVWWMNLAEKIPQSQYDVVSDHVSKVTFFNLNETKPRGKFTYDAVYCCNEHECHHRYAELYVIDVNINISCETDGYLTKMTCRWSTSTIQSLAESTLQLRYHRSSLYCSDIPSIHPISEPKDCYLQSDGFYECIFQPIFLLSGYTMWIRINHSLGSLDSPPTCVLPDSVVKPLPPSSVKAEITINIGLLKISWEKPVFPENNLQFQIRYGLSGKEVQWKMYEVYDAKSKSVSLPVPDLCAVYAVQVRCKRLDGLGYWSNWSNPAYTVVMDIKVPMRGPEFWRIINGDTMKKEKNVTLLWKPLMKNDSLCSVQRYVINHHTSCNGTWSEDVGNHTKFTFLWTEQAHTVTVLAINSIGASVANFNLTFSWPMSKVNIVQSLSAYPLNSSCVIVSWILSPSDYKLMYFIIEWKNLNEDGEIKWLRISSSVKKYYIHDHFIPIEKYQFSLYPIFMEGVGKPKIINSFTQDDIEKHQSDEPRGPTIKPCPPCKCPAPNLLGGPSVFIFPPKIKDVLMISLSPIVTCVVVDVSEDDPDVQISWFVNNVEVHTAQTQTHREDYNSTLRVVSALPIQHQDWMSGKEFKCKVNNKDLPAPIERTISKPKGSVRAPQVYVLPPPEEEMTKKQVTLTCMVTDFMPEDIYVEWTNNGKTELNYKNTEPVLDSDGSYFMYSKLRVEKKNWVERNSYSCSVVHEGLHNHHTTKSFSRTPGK
The method, then: as §1

T1 sequence (Q62959 other isoform, or with tags, fused parts or gaps): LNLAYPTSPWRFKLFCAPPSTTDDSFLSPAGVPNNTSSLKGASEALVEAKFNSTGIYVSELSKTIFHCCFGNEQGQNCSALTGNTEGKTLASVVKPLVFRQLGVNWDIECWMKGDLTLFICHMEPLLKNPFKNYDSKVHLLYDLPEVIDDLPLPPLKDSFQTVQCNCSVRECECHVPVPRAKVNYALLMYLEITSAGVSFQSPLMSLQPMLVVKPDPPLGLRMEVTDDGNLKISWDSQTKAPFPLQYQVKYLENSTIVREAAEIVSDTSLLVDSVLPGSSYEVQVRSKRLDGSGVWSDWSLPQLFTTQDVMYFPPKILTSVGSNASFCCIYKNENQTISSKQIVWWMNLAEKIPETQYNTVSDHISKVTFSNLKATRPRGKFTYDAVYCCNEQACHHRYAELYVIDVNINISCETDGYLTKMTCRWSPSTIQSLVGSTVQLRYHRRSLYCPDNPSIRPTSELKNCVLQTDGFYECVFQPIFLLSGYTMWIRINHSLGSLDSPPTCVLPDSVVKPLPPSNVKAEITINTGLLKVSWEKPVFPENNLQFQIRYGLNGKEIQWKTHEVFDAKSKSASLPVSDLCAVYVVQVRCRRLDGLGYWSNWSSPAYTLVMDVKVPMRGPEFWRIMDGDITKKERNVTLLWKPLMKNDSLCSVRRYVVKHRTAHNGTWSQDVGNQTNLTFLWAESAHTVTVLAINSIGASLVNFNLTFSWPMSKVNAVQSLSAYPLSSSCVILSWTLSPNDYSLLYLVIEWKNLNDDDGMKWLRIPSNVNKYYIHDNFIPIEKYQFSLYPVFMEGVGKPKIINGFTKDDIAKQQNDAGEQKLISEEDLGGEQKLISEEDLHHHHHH
T2 sequence (P48356 other isoform, or with tags, fused parts or gaps): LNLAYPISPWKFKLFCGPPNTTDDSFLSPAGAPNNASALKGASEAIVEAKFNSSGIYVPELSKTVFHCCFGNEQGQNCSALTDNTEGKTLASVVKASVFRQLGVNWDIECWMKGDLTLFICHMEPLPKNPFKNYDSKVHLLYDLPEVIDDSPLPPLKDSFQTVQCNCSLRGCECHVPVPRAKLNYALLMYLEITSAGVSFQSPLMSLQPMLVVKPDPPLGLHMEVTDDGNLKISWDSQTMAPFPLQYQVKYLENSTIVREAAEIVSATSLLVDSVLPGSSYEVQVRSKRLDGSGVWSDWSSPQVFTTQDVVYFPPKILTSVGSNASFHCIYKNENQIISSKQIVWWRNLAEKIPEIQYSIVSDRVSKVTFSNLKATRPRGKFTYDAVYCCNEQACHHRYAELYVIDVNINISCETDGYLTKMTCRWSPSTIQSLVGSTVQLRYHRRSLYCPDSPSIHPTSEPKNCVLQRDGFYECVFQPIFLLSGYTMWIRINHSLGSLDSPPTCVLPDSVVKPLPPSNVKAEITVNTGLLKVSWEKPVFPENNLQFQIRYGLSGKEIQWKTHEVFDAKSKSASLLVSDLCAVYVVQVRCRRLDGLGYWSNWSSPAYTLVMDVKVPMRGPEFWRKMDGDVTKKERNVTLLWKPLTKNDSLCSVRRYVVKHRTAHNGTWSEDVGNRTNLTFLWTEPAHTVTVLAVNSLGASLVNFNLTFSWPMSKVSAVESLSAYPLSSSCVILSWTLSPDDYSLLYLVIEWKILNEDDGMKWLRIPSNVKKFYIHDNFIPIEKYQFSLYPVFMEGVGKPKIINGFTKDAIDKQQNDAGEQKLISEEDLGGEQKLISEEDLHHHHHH

B1: H4H18439P2 (antibody, human IgG4, V domains shown)
VH: QLQLQESGPGLVKPSETLSLTCIVSGGDITSSSYYWNWIRQPPGKGLEWIGNIYYSGSTNYNPSLKSRVTISIDTSKSQFSLKLRSVTAADTAVYYCARLLRYFDWSKGYLDYWGQGTLVTVSS
VL: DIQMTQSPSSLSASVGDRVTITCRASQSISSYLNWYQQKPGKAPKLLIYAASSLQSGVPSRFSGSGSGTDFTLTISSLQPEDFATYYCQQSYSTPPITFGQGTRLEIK
notes: H4H prefix: human IgG4 Fc
The Kd is a measure of binding affinity in units of concentration. The koff is the first-order rate constant of dissociation. By kon is commonly meant the rate constant with which the complex forms. What is called t½ is the time in which the quantity being followed falls by half. For B1, the “100 nM rLEPR-MMH Bound (RU)” value in assay [1] turned out to be 0 RU. The “100 nM mLEPR-MMH Bound (RU)” value in assay [2] was -1 RU. Also, in assay [3], the “100 nM hLEPR-MMH Bound (RU)” value is 19 RU, the Kd stood at 202 nM, the koff was 0.00469 s⁻¹ and the kon was determined as 23200 M⁻¹ s⁻¹. Also, the t½ in assay [3] came out at 2.5 min. In assay [4], the “100 nM mfLEPR-MMH Bound (RU)” value came to 14 RU, the Kd came to 169 nM, the dissociation rate constant (koff) came to 0.00792 s⁻¹ and the kon turned out to be 46900 M⁻¹ s⁻¹. For the same molecule, the t½ in assay [4] worked out at 1.5 min. In addition, in assay [5], the “100 nM hLEPR-mFc Bound (RU)” value came to 67 RU, the Kd is 15.1 nM, the koff was found to be 0.000923 s⁻¹ and the kon stood at 60900 M⁻¹ s⁻¹. For the same molecule, the t½ in assay [5] was 13 min.

B2: H4H18466P2 (antibody, human IgG4, V domains shown)
VH: EVQLVESGGGLVQPGGSLRLSCTASGFTFSSYGLHWVRQAPGKGLEYVSSINHNGGSKYYADSVKGRFTISRDNSKNTLFLQMGSLKTEDMAVYYCARDLFLEWLFHGFDIWGQGTMVTVSS
VL: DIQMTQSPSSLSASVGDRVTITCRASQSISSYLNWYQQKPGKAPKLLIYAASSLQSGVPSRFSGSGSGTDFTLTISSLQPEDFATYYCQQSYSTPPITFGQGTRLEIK
notes: H4H prefix: human IgG4 Fc
Turning to B2, in assay [1], the “100 nM rLEPR-MMH Bound (RU)” value was 6 RU, the dissociation constant (Kd) amounted to 771 nM, the koff worked out at 0.0252 s⁻¹ and the kon amounted to 32600 M⁻¹ s⁻¹. For the same molecule, in assay [1], the t½ was found to be 0.5 min. In assay [2], the “100 nM mLEPR-MMH Bound (RU)” value amounted to 3 RU. Also, in assay [3], the “100 nM hLEPR-MMH Bound (RU)” value was found to be 26 RU, the dissociation constant (Kd) was 148 nM, the off-rate (koff) was 0.00674 s⁻¹ and the on-rate constant (kon) came to 45500 M⁻¹ s⁻¹. Moreover, the t½ in assay [3] amounted to 1.7 min. In assay [4], the “100 nM mfLEPR-MMH Bound (RU)” value amounted to 27 RU, the equilibrium dissociation constant (Kd) came to 164 nM, the koff came out at 0.0138 s⁻¹ and the kon stood at 84300 M⁻¹ s⁻¹. Further, in assay [4], the t½ amounted to 0.8 min. In assay [5], the “100 nM hLEPR-mFc Bound (RU)” value came to 52 RU, the Kd worked out at 8.86 nM, the koff was 0.00052 s⁻¹ and the on-rate constant (kon) came to 58700 M⁻¹ s⁻¹. The t½ in assay [5] was determined as 22 min.
